Results: patent publication US20150344570A1 (published 2015)

T1: FcγRIIa R (human, UniProt P12318 34-217)
T1 construct: extracellular domain; Soluble His-tagged extracellular domain expressed in FreeStyle293 cells; analyte in Biacore; also called FcgRIIa R; FcgRIIaR; not shown: His tag attached to the C terminus
T1 sequence (looked up): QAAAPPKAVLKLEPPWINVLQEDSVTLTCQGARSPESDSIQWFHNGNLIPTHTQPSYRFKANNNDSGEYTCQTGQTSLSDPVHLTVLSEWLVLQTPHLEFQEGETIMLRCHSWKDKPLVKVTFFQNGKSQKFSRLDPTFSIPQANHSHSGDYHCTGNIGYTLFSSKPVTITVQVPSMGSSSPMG

T2: FcγRIIb (human, UniProt P31994 43-217)
T2 construct: extracellular domain; Soluble His-tagged extracellular domain expressed in FreeStyle293 cells; analyte in Biacore; also called FcgRIIb; 2b; not shown: His tag attached to the C terminus
T2 sequence (looked up): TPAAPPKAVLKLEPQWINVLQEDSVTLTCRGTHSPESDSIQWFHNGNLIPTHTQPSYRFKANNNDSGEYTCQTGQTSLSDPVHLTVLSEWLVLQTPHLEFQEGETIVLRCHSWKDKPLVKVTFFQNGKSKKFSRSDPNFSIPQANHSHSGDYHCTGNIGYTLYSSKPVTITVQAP

T3: FcγRIIb (human, UniProt P31994 43-217)
T3 construct: extracellular domain; also called FcgRIIb; 2b
T3 sequence (looked up): T2 sequence (looked up)

B1: GpH7-A5/GpH7-B3 variant P329_16H/GpL16-k0 (antibody, human IgG1, kappa)
heavy 1: not shown
heavy 2: not shown
light: DIVMTQSPLSLPVTPGEPASISCQASESLVHSNRNTYLHWYLQKPGQSPQLLIYKVSNRFSGVPDRFSGSGSGTDFTLKISRVEAEDVGVYYCSQNTHVPPTFGQGTKVEIERTVAAPSVFIFPPSDEQLKSGTASVVCLLNNFYPREAKVQWKVDNALQSGNSQESVTEQDSKDSTYSLSSTLTLSKADYEKHKVYACEVTHQGLSSPVTKSFNRGEC
notes: Heterodimerized anti-glypican-3 IgG1 antibody; alteration only in the GpH7-B3 H chain; position in EU numbering; also called He Ab
B2: GpH7-A5/GpH7-B3 variant S298_10E/GpL16-k0 (antibody, human IgG1, kappa)
heavy 1: not shown
heavy 2: not shown
light: B1 light
notes: as for B1
B3: GpH7-A5/GpH7-B3 variant D265_06M/GpL16-k0 (antibody, human IgG1, kappa)
heavy 1: not shown
heavy 2: not shown
light: B1 light
notes: mutation in the GpH7-B3 chain only; also called He Ab
B4: GpH7-A5/GpH7-B3 variant D265_11K/GpL16-k0 (antibody, human IgG1, kappa)
heavy 1: not shown
heavy 2: not shown
light: B1 light
notes: as for B3
B5: GpH7-A5/GpH7-B3 variant D265_04F/GpL16-k0 (antibody, human IgG1, kappa)
heavy 1: not shown
heavy 2: not shown
light: B1 light
notes: as for B3
B6: GpH7-A5/GpH7-B3 variant Y300_18N/GpL16-k0 (antibody, human IgG1, kappa)
heavy 1: not shown
heavy 2: not shown
light: B1 light
notes: as for B1
B7: GpH7-A5/GpH7-B3 variant S298_12R/GpL16-k0 (antibody, human IgG1, kappa)
heavy 1: not shown
heavy 2: not shown
light: B1 light
notes: as for B1
B8: GpH7-A5/GpH7-B3 variant Y300_12R/GpL16-k0 (antibody, human IgG1, kappa)
heavy 1: not shown
heavy 2: not shown
light: B1 light
notes: as for B1
B9: GpH7-A5/GpH7-B3 variant D265_13S/GpL16-k0 (antibody, human IgG1, kappa)
heavy 1: not shown
heavy 2: not shown
light: B1 light
notes: as for B3
B10: GpH7-A5/GpH7-B3 variant D265_07I/GpL16-k0 (antibody, human IgG1, kappa)
heavy 1: not shown
heavy 2: not shown
light: B1 light
notes: as for B3
B11: GpH7-A5/GpH7-B3 variant P329_15Y/GpL16-k0 (antibody, human IgG1, kappa)
heavy 1: not shown
heavy 2: not shown
light: B1 light
notes: as for B1
B12: GpH7-A5/GpH7-B3 variant D265_15Y/GpL16-k0 (antibody, human IgG1, kappa)
heavy 1: not shown
heavy 2: not shown
light: B1 light
notes: as for B3
B13: GpH7-A5/GpH7-B3 variant S298_20W/GpL16-k0 (antibody, human IgG1, kappa)
heavy 1: not shown
heavy 2: not shown
light: B1 light
notes: as for B1
B14: GpH7-A5/GpH7-B3 variant D265_12R/GpL16-k0 (antibody, human IgG1, kappa)
heavy 1: not shown
heavy 2: not shown
light: B1 light
notes: as for B3
B15: GpH7-A5/GpH7-B3 variant S298_18N/GpL16-k0 (antibody, human IgG1, kappa)
heavy 1: not shown
heavy 2: not shown
light: B1 light
notes: as for B1
B16: GpH7-A5/GpH7-B3 variant S298_11K/GpL16-k0 (antibody, human IgG1, kappa)
heavy 1: not shown
heavy 2: not shown
light: B1 light
notes: as for B1

Tests used:
FcγRIIa R [1] = target: T1, FcγRIIa R; experiment: SPR (Biacore), antibody captured via antigen peptide, FcγR as analyte
Method: (§1) The heterodimerized antibodies He Abs in which one of the H chains was introduced with an alteration were assayed for their binding activities to each activating FcγR and inhibitory FcγR according to the method described in Example 4. […] The activating FcγRs in FIGS. 26, 27, 28, and 29 are FcγRIa, FcγRIIa (R), FcγRIIa (H), and FcγRIIIa, respectively.
(§2) Analysis of interaction between objective antibody and the FcγR was carried out using Biacore T100 (GE Healthcare). HBS-EP+ (GE Healthcare) was used as the running buffer, and the measurement temperature was set to 25° C. Chips produced by immobilizing the antigen peptide by the amine coupling method to a Series S Sencor Chip CM5 (GE Healthcare), or alternatively, chips produced by allowing preliminarily biotinylated antigen peptides to interact with and immobilize onto a Series S Sensor Chip SA (certified) (GE Healthcare) were used. Antibodies of interest were captured onto an antigen peptide-immobilized chip, and allowed to interact to each FcγR diluted with running buffer. To regenerate and repeatedly use the chip, the antibodies captured on the chip were washed off by reacting 10 mM glycine-HCl, pH 1.5.

FcγRIIb [2] = target: T2, FcγRIIb; experiment: as above
Method: as §1, §2

FcγRIIa R [3] = target: T1, FcγRIIa R; experiment: ratio of He/Con_2aR to He/Con_2b (binding to FcγRIIb as reference); SPR
FcγRIIIa [4] = target: T4, FcγRIIIa (human, UniProt P08637 17-208); experiment: SPR; He/Con_3a divided by He/Con_2b (FcγRIIIa against FcγRIIb)
T4 construct: extracellular domain; also called FcgRIIIa; 3a
T4 sequence (P08637 17-208): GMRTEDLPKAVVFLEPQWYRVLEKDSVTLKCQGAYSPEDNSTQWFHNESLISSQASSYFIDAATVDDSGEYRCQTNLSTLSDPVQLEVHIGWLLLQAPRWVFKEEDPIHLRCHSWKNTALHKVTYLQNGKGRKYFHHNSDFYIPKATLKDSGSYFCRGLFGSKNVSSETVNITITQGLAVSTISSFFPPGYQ

FcγRIIb [5] = target: T3, FcγRIIb; experiment: SPR (Biacore), relative binding
FcγRIIIa [6] = target: T4, FcγRIIIa; experiment: SPR (Biacore), relative binding

Binder	He/Con_2aR (IIaR binding relative to GpH7-A5/GpH7-B3/GpL16-k0) (FcγRIIa R [1])	He/Con_2b (IIb binding relative to GpH7-A5/GpH7-B3/GpL16-k0) (FcγRIIb [2])	He_2aR/2b (IIaR/IIb) (FcγRIIa R [3])	He_3a/2b (IIIa/IIb) (FcγRIIIa [4]) [ratio]	He/Con_2b (FcγRIIb [5])	He/Con_3a (FcγRIIIa [6])
B1	56.7 % of control (control = 100)	39.1 % of control (control = 100)	1.45	–	–	–
B2	65.1 % of control (control = 100)	47.6 % of control (control = 100)	1.37	–	–	–
B3	–	–	–	0.26	10 % of GpH7-A5/GpH7-B3/GpL16-k0	2.6 % of GpH7-A5/GpH7-B3/GpL16-k0
B4	–	–	–	0.17	14.9 % of GpH7-A5/GpH7-B3/GpL16-k0	2.5 % of GpH7-A5/GpH7-B3/GpL16-k0
B5	–	–	–	0	3.2 % of GpH7-A5/GpH7-B3/GpL16-k0	0 % of GpH7-A5/GpH7-B3/GpL16-k0
B6	100 % of control (control = 100)	82.7 % of control (control = 100)	1.21	–	–	–
B7	85.3 % of control (control = 100)	57.8 % of control (control = 100)	1.48	–	–	–
B8	55.1 % of control (control = 100)	41.2 % of control (control = 100)	1.34	–	–	–
B9	–	–	–	0.35	11.3 % of GpH7-A5/GpH7-B3/GpL16-k0	3.9 % of GpH7-A5/GpH7-B3/GpL16-k0
B10	–	–	–	-0.61	1.3 % of GpH7-A5/GpH7-B3/GpL16-k0	-0.8 % of GpH7-A5/GpH7-B3/GpL16-k0
B11	67.9 % of control (control = 100)	45.7 % of control (control = 100)	1.49	–	–	–
B12	–	–	–	-2.86	0.6 % of GpH7-A5/GpH7-B3/GpL16-k0	-1.7 % of GpH7-A5/GpH7-B3/GpL16-k0
B13	55.4 % of control (control = 100)	41.1 % of control (control = 100)	1.35	–	–	–
B14	–	–	–	0.21	15 % of GpH7-A5/GpH7-B3/GpL16-k0	3.2 % of GpH7-A5/GpH7-B3/GpL16-k0
B15	68 % of control (control = 100)	48.1 % of control (control = 100)	1.41	–	–	–
B16	95.1 % of control (control = 100)	61.3 % of control (control = 100)	1.55	–	–	–
